Results reported in the supplement of paper PMC10567573.
± gives the standard deviation.

Assay: protein stability index of a GFP-peptide fusion (GPS, HEK-293T) (PSI 1-6); higher = more stable
Conditions: c terminus: a fixed tail appended
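Further: 24-mer peptide tiles fused after GFP, lentivirally expressed, FACS-sorted into six equal bins by GFP/DsRed ratio, decoded by Illumina sequencing, PSI is the read-weighted mean bin number.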

Sequence | protein stability index (treatment: DMSO) | protein stability index (treatment: MLN4924 1 uM, 8 h)
ADLRTNHTLNNLVEKLLREEAEGA [TRIM35] | 4.32 ± 0.17 | 4.43 ± 0.2
QNGEEGTSTPEDKESGQEGVDSMA [SMARCE1] | 5.44 ± 0.17 | 5.65 ± 0.29
PETHIFTAPEEVPKVSDQALVSAH [DMRTC1] | 4.96 ± 0.34 | 4.92 ± 0.11
NSSQLLLRRHAGLLDGLARRVGIL [SCARA5] | 2.72 ± 0.027 | 2.69 ± 0.28
MLYEKQKQQNVAHCMLVSNRVSWW [ZBED1] | 2.08 ± 0.17 | 2.31 ± 0.2
EAEAADSGAVGARRFLLCLYLVGF [MFSD9] | 2.79 ± 0.91 | 2.65 ± 0.71
FKNRLVNIMPYESTRVCLQPIRGV [PTPRD] | 2.35 ± 0.35 | 2.33 ± 0.47
GVDSMAEEGTSDSNTGSESNSATV [SMARCE1] | 5.41 ± 0.14 | 5.57 ± 0.41
FDKLALRFHGRLLFLKDVLGDEIC [KCTD13] | 2.48 ± 0.41 | 2.34 ± 0.18
EGDVLDTLEALGYKGPLLEEQALT [FAM98B] | 4.36 ± 0.34 | 4.35 ± 0.12
LNFCGPNVINHFYCDLPQLFQLSC [OR3A1] | 2.83 ± 0.51 | 2.6 ± 0.71
QERERVLTHFSRRYCQCNPDDSTS [PSD2] | 3.88 ± 0.14 | 3.93 ± 0.14
GQPLRPLVPDASKQRLMENTEDWR [PDLIM7] | 4.54 ± 0.24 | 4.72 ± 0.18
REAKMICFKSVAKTPYDTSRRQEK [ELOA2] | 3.97 ± 0.22 | 4.11 ± 0.58
RHTSPVFSPANPESSMEDCLAHLG [BCL2L13] | 4.24 ± 0.069 | 4.31 ± 0.29
KDLSNTFAKLEKLTILAKRKSLFD [STX5] | 2.45 ± 0.16 | 2.51 ± 0.32
TRFILSKVPSEAPSPMPTHRSYLG [SLC6A17] | 2.73 ± 0.31 | 2.64 ± 0.26
EGYQALYHAVVEPMLWNPSGTPKR [C22orf31] | 2.39 ± 0.28 | 2.79 ± 0.61
QEAEEPKARVLRSKSLCHDEIENL [CDC25B] | 5.37 ± 0.089 | 5.57 ± 0.23
RAPQGCSGVDECARQEGLTFFGTE [PBXIP1] | 4.01 ± 0.35 | 4.3 ± 0.55
GGGGCDRYEPLPPSLPAAGEQDCC [KCNA3] | 5.02 ± 0.33 | 5.06 ± 0.29
HVRQGVFSSLNHIVEKRVLAHLAP [INTS3] | 2.32 ± 0.21 | 2.41 ± 0.12

Sequence | protein stability index (treatment: DMSO) | protein stability index (treatment: MLN4924 1 uM, 8 h)
HSKASLPTGEGSISHEEQKSVRLA [CHCHD6] | 5.14 ± 0.2 | 5.15 ± 0.17
RVYPKCTWLTTPKSTWPRYSKPGL [TCF25] | 2.59 ± 0.23 | 2.46 ± 0.12
MALLRKINQVLLFLLIVTLCVILY [GLT8D2] | 2.12 ± 0.27 | 2.11 ± 0.18
GVNYPKPMVNHAEASRLNIERMKQ [CRY1] | 4.2 ± 0.3 | 4.11 ± 0.62
VYTETVHVTVENVQELLPAACLLQ [KLHL12] | 2.12 ± 0.52 | 1.91 ± 0.26
GRFEQLGKTAASWCLHVNNWLQVS [FSD1] | 2.29 ± 0.37 | 1.96 ± 0.2
EADVNGLRRVLDELTLARTDLEMQ [KRT16] | 4 ± 0.35 | 4.07 ± 0.094
SFHPLQYIGFYGKETTNTCILKCN [PDS5B] | 1.99 ± 0.44 | 2.27 ± 0.35
ATRAMGLLNTLSLAFVGGLPLAYQ [TMEM175] | 3.11 ± 0.32 | 2.99 ± 0.56
QAQKDPKKDRPLARRKSELPQDPH [PPP2R5C] | 5.12 ± 0.17 | 5.34 ± 0.17
ERRGGLPPLPLHPGGDQGGPPVGP [WAS] | 4.95 ± 0.4 | 5.22 ± 0.2
QTGDPTSPIKLSPTSPVYRGSSSG [MTUS2] | 4.76 ± 0.26 | 4.82 ± 0.2
DMMVMGRKPDPMCVFTYVQSLYNH [SMTNL2] | 2.28 ± 0.24 | 2.2 ± 0.34
ALGHLGNDDSADYQHFLQDCVDGL [DLC1] | 4.26 ± 0.17 | 4.28 ± 0.46
HVDSIKFCGATIAGLSLLSPSVMR [ALKBH7] | 2.2 ± 0.81 | 2.19 ± 0.39
VQSLCAKHGIEYQSKPLLSAFADI [FADS1] | 2.31 ± 0.3 | 2.32 ± 0.26
KSPIAPCSLDKRVILIFHCEFSSE [CDC25B] | 2.73 ± 0.5 | 2.8 ± 0.47
PIGCDGVLFSTHTLDKCGICQGDG [ADAMTSL2] | 3.62 ± 0.26 | 3.79 ± 0.47
SEDEEEYESGYAFLPDLLIFQMVI [SMG5] | 2.76 ± 0.62 | 2.59 ± 0.53
EEGSANRRPEDQELESLSAIEAEL [CHGA] | 5.59 ± 0.14 | 5.45 ± 0.095
ICEATQIIDYLEQTFLDERTPRLM [GDAP1] | 2.39 ± 0.24 | 2.45 ± 0.18
MNPYKIDIGAVYSHRPNQHNTVKL [PRIM1] | 2.79 ± 0.06 | 2.43 ± 0.37
